This is an account of results in patent US20240199696A1, “AGENTS FOR MANUFACTURE OF CO-ASSEMBLING PEPTIDES” (University of Florida Research Foundation, Incorporated, priority 2021, published 2024).

First the molecules themselves.
B3: mCATCH(+) peptide, Ac-QQKPKPKPKQQ-Am (peptide)
peptide: Ac-QQKPKPKPKQQ-NH2
notes: Mutant of CATCH(+) with proline in place of the phenylalanine residues; also called mutant CATCH(4+); mCATCH (4+)

Data set [1] deals with CATCH(+) peptide, Ac-…-Am. Description: fluorescence microscopy of binary mixtures (FIG. 33A: 0.75 µM CATCH(+)).
Data set [2] concerns the target T1, mCATCH(-) peptide, Ac-EQEPEPEPEQE-Am.
T1 construct: Mutant of CATCH(-) with proline in place of the phenylalanine residues
T1 peptide: Ac-EQEPEPEPEQE-NH2
Description: ThT fluorimetry, equimolar mixture in 1xPBS. The method, then:
(§1) Thioflavin T (ThT) Assay. A ThT stock solution containing 0.8 mg/mL of thioflavin T (Acros) in 1× phosphate-buffered saline (PBS) (137 mM NaCl, 2.7 mM KCl, 10 mM Na₂HPO₄ and 1.8 mM KH₂PO₄, pH 7.4) was filtered through a 0.22 μm syringe filter (Millex), and further diluted 1:10 with 1×PBS to create a working solution. Peptide samples were mixed with the ThT working solution at a 1:10 (v/v) ratio, added to a black 96-well plate (Corning), and analyzed with a Molecular Devices SpectraMax M3 spectrophotometer (excitation 450, emission 482 nm). All samples were run in triplicate, with the mean and standard deviation of these samples reported.

Data set [3] concerns the molecule itself. Description: ThT fluorimetry, TEM, circular dichroism and fluorescence microscopy of the peptide alone.
In data set [4] the target is B3. Description: ThT fluorimetry, equimolar mixture in 1xPBS. On the procedure: as §1
Data set [5] concerns the target T1, mCATCH(-) peptide, Ac-EQEPEPEPEQE-Am. Description: ThT fluorimetry, kinetic analysis.

As for “CATCH(-)GFP, recombinant fusion of CATCH(-) and superfolder green fluorescent protein”, the concentration below which only diffuse fluorescence (no microparticles) was observed in data set [1] is under 7.5 µM.

B1: CATCH(+) peptide, Ac-QQKFKFKFKQQ-Am (peptide)
peptide: Ac-QQKFKFKFKQQ-NH2
notes: Synthetic cationic variant of Q11; also called CATCH (4+); CATCH(4+)
As to B1, the binding result in data set [2] and in data set [3] was “no binding” throughout.

B2: CATCH(-) peptide, Ac-EQEFEFEFEQE-Am (peptide)
peptide: Ac-EQEFEFEFEQE-NH2
notes: Synthetic anionic variant of Q11; also called CATCH (6-); CATCH(6-)
As to B2, the binding result in data set [4] and in data set [3] was “no binding” each time. Consider B3, for which, in data set [5], the binding result is reported as “no binding”.
